Experiments:
P. aeruginosa 6294 (O6) = test: Acute pneumonia model in mice, strain 6294; assay type: in vivo, Pseudomonas aeruginosa; details: for Overall Impression, lung histology: BALB/c mice
Description: (§1) Antibodies or PBS were administered 24 hours before infection in each model. P. aeruginosa acute pneumonia, keratitis, and thermal injury infection models were performed as described (DiGiandomenico, A., et al., Proc Natl Acad Sci USA 104, 4624-4629 (2007)), with modifications. In the acute pneumonia model, BALB/c mice (The Jackson Laboratory) were infected with P. aeruginosa strains suspended in a 0.05 ml inoculum. In the thermal injury model, CF-1 mice (Charles River) received a 10% total body surface area burn with a metal brand heated to 92° C. for 10 seconds. Animals were infected subcutaneously with P. aeruginosa strain 6077 at the indicated dose. For organ burden experiments, acute pneumonia was induced in mice followed by harvesting of lungs, spleens, and kidneys 24 hours post-infection for determination of CFU.

[1] = system: P. aeruginosa 6077 (exoU+); test: Rabbit red blood cell lysis inhibition assay with strain 6077; assay type: cell-based, Pseudomonas aeruginosa; details: FIG. 12F
Description: Percent inhibition of cytotoxicity analysis was analysed for the parental V2L2 mAb, mAb166 (positive control) and R347 (negative control), where the antibodies were administered to cultured broncho-epithelial cell line A549 combined with log-phase P. aeruginosa strain 6077 (exoU+) at a MOI of approximately 10. A549 lysis was assayed by measuring released lactate dehydrogenase (LDH) activity and lysis in the presence of mAbs was compared to wells without mAb to determine percent inhibition. The V2L2 mAb, mAb166 (positive control) and R347 (negative control) were evaluated for their ability to prevent lysis of RBCs, where the antibodies were mixed with log-phase P. aeruginosa 6077 (exoU^+) and washed rabbit red blood cells (RBCs) and incubated for 2 hours at 37°. Intact RBCs were pelleted and the extent of lysis determined by measuring the OD405 of the cell-free supernatant. Lysis in the presence of anti-PcrV mAbs was compared to wells without mAb to determine percent inhibition.

[2] = system: P. aeruginosa PA103A (O11); test: Acute pneumonia model in mice, strain PA103A; assay type: in vivo, Pseudomonas aeruginosa; details: V2L2 0.04-5 mg/kg, FIG. 13I
Description: as §1
The in vivo effect of administration of an anti-PcrV antibodies was studied in mice using an acute pneumonia model. Groups of mice were treated with either increasing concentrations of the V2L2 antibody, a positive control anti-PcrV antibody (mAb166), or a negative control (R347), as shown in FIG. 13 (A-B). Groups of mice were also treated with either increasing concentrations of the V2L2 antibody, the PcrV antibody PcrV-02, or a negative control (R347), as shown in FIG. 13 (C-D). […]

[3] = system: P. aeruginosa 6206 (O11-ExoU+); test: Acute pneumonia model in mice, strain 6206; assay type: in vivo, Pseudomonas aeruginosa
Description: as §1

[4] = system: P. aeruginosa 6077 (O11, cytotoxic); test: Acute pneumonia model in mice, strain 6077; assay type: in vivo, Pseudomonas aeruginosa; details: IP 24 h prior to intranasal 6077 (1×10^6 CFU/animal); FIG. 13E-G
Description: as §1

[5] = 1.33×10^7 CFU 6294, 0.2 mg/kg (combination 0.1 mg/kg ea), Table 6A
[6] = 1.7×10^7 CFU 6294, 0.2 mg/kg (combination 0.1 mg/kg ea), Table 6B
[7] = 5.25×10^5 cfu 6206, single antibody: R347 2.1 mg/kg, V2L2 0.1 mg/kg, WapR-004 0.5 mg/kg, Table 5
[8] = 9.25×10^5 CFU 6206, 0.2 mg/kg (combination 0.1 mg/kg ea), Table 7
[9] = V2L2 0.07-5 mg/kg, intranasal 6206, FIG. 14A-B

B1: V2L2: anti-PcrV monoclonal antibody, epitope class 4; VH SEQ ID NO: 216, VL SEQ ID NO: 217 (antibody, V domains shown)
VH: EMQLLESGGGLVQPGGSLRLSCAASGFTFSSYAMNWVRQAPGEGLEWVSAITISGITAYYTDSVKGRFTISRDNSKNTLYLQMNSLRAGDTAVYYCAKEEFLPGTHYYYGMDVWGQGTTVTVSS
VL: AIQMTQSPSSLSASVGDRVTITCRASQGIRNDLGWYQQKPGKAPKLVIYSASTLQSGVPSRFSGSGSGTDFTLSISSLQPDDFATYYCLQDYNYPWTFGQGTKVEIK
modifications: V2L2 VH; V2L2 VL
protection compared to mAb166 at similar doses (P. aeruginosa 6294 (O6); 1 mg/kg, strain 6294, FIG. 13B): significantly more potent protection than mAb166 | Bacteria (P. aeruginosa 6294 (O6); [5]): Neg-1+ | Hemorrhage, extent in words (P. aeruginosa 6294 (O6); [5]): Extensive | Inflammatory Infiltrate (P. aeruginosa 6294 (O6); [5]): PMN 3+ | Involved Lung Surface Area (P. aeruginosa 6294 (O6); [5]): 57% | Bacteria (P. aeruginosa 6294 (O6); [6]): Neg | Inflammatory Infiltrate (P. aeruginosa 6294 (O6); [6]): PMN 2+ | Involved Lung Surface Area (P. aeruginosa 6294 (O6); 1.7×10^7 CFU 6294, 0.2 mg/kg, Table 6B): 30% | protection against additional strains (P. aeruginosa 6294 (O6); 6294, V2L2 0.04-5 mg/kg, FIG. 13I): protects against additional Pseudomonas strains | Overall Impression, lung histology (P. aeruginosa 6294 (O6); [5]): Broncho interstitial pneumonia | Overall Impression, lung histology (P. aeruginosa 6294 (O6); [6]): Broncho interstitial pneumonia | effect on survival (P. aeruginosa 6294 (O6); increasing doses of V2L2 24 h before infection, out to 168 hours post-infection, FIG. 13): dose-dependent effect on improved survival | potency in prevention of RBC lysis, V2L2 vs. 29D2 [1]: more potent in prevention of RBC lysis than the 29D2 | protection against additional strains [2]: protects against additional Pseudomonas strains | reduction in organ CFU compared to mAb166 at similar doses ([3]; 1 mg/kg, lung, FIG. 14B): significantly greater reduction in organ CFU than mAb166 | organ burden / tissue clearance (lung, spleen, kidney CFU) ([3]; 5.25×10^5 cfu 6206, V2L2 0.1 mg/kg, W4-RAD 0.5 mg/kg, combination, 24 h post infection, FIG. 15): effective in lowering organ burden | Inflammatory Infiltrate [3, 7]: PMN 3+ | Involved Lung Surface Area [3, 7]: 55% | Overall Impression, lung histology [3, 7]: Broncho interstitial pneumonia | Inflammatory Infiltrate [3, 8]: PMN 2-3+ | Involved Lung Surface Area [3, 8]: 40% | survival, in words ([3]; 6206, Bs3-V2L2 0.28 mg/kg, V2L2 0.2 mg/kg 24 h before infection, monitored 120 hours, FIG. 21A): survived, along with those which received the V2L2 control | Overall Impression, lung histology ([3]; BALB/c mice, 9.25×10^5 CFU 6206, 0.2 mg/kg (combination 0.1 mg/kg ea), Table 7): Broncho interstitial pneumonia | clearance in the kidney [3, 9]: little effect on clearance in the kidney | dissemination to lung and spleen [3, 9]: greatly reduced dissemination to both the lung and spleen in a dose-dependent manner | protection in vivo (survival) [4]: provides protection in vivo

From patent publication US20150284450A1, “COMBINATION THERAPIES USING ANTI-PSEUDOMONAS PSL AND PCRV BINDING MOLECULES” (priority 2012, published 2015)
